The record followed here is paper PMC9018708.

Test [1] concerns the target Heparin Binding EGF Like Growth Factor, endogenous on ARN8 cells (human (endogenous in ARN8)) (UniProt Q99075).
Test [2] has as its target human Heparin Binding EGF Like Growth Factor, overexpressed on ARN8 HBEGFKO cells (human) (UniProt Q99075).
The target in test [3] is Heparin Binding EGF Like Growth Factor (DT receptor) on Vero cells (African green monkey (endogenous in Vero)).
The target is the same in test [4]. The source holds these as a separate data set.

In test [1], “DT(ATR), DT chimera with the R domain of Albireti Toxin” had a sensitivity (EC50), dose titration on WT ARN8 cells (HBEGFKO cells: 245 nM) of 169 nM. The sensitivity (EC50), dose titration on +HBEGF ARN8 cells in test [2] is 608 nM. The EC50 of toxicity toward Vero cells (dose titration) in test [3] was determined as 12 nM.

“DT(PTR), DT chimera with the R domain of Peptono Toxin” returned a sensitivity (EC50), dose titration on WT ARN8 cells (HBEGFKO cells: 55 nM) in test [1] of 25 nM. In test [2], the sensitivity (EC50), dose titration on +HBEGF ARN8 cells was found to be 50 nM. In test [3], this substance displayed an EC50 of toxicity toward Vero cells (dose titration) of 7 nM.

As to “Diphtheria toxin (from UniProt P00588 33-567) (natural protein)”, the DT sensitivity (EC50), dose titration on WT ARN8 cells (HBEGFKO cells: N/A) in test [1] amounted to 0.026 nM. This substance also came in with a DT sensitivity (EC50), dose titration on +HBEGF ARN8 cells in test [2] of 0.00043 nM. In test [4], this substance came in with an EC50 of inhibition of protein synthesis (nLucP assay) in Vero cells, overnight (18 h) incubation of 0.00015 nM.
